Experiment [1] concerns the target A/New York/631/1996 H3N2 hemagglutinin head domain (HA1 43-309) (Influenza A virus A/New York/631/1996 …, strain). Kind of experiment: crystal structure.
The target in experiment [2] is A/California/07/2009 H1N1 hemagglutinin, recombinant HA used for negative-stain EM (Influenza A virus A/California/07/2009 …, UniProt C3W5X2, strain). Description: negative-stain EM.

B1: Fab 3_H2 (Fab, V domains shown)
VH: QGTLKESGPAMVKPTQTLTLTCTFSGFSLDTSGMCVAWIRQPPGKALEWLALFDWDNNKYYSPSLKTRLNMSKGRSRNQVVLTMTNMDPVDTGTYYCARKVYGSFYYGMDVWGQGTTVTVSS
VL: DIVLTQSPATLSLSPGDSATLSCRASQDVSANLAWYQQKPGQAPRLVIYDATNRATGIPARFSGSGLGTDFTLTISSLEPEDFAVYYCQQRSNWPPVYTFGQGTKLEIK
Regarding B1, the binding result in experiment [1] is on record as “binds”.

B2: 3_H2 monoclonal antibody (IgG1) (antibody, V domains shown)
VH: QGTLKESGPAMVKPTQTLTLTCTFSGFSLDTSGMCVAWIRQPPGKALEWLALFDWDNNKYYSPSLKTRLNMSKGRSRNQVVLTMTNMDPVDTGTYYCARKVYGSFYYGMDVWGQGTTVTVSS
VL: DIVLTQSPATLSLSPGDSATLSCRASQDVSANLAWYQQKPGQAPRLVIYDATNRATGIPARFSGSGLGTDFTLTISSLEPEDFAVYYCQQRSNWPPVYTFGQGTKLEIK
As for B2, in experiment [2], the binding result is recorded as “binds”.

B3: Fab 49_C09 (Fab, V domains shown)
VH: QSTLKESGPTLVKPTETLTLTCTFSGFSLHTSGVGVGWIRQPPGKALECLALIYWNDDARYSPSLQSRLTITKDTSKNQVVLTMSNMDPVDTATYYCAHKGGGRDGYNSAAFDVWGQGTMVTVSS
VL: SYVLTQPPSVSVAPGQTARIPCGGNNIGMKTVHWYQQRPGQAPVVVVYDDSRRPSGIPERFSGSNSGNTATLTISRVEAGDEADYYCQVWDSSVNHWVFGGGTKLTVL
Turning to B3, in experiment [1], the binding result was “binds”.

B4: 49_C09 monoclonal antibody (IgG1) (antibody, V domains shown)
VH: QSTLKESGPTLVKPTETLTLTCTFSGFSLHTSGVGVGWIRQPPGKALECLALIYWNDDARYSPSLQSRLTITKDTSKNQVVLTMSNMDPVDTATYYCAHKGGGRDGYNSAAFDVWGQGTMVTVSS
VL: SYVLTQPPSVSVAPGQTARIPCGGNNIGMKTVHWYQQRPGQAPVVVVYDDSRRPSGIPERFSGSNSGNTATLTISRVEAGDEADYYCQVWDSSVNHWVFGGGTKLTVL
Consider B4, for which, in experiment [2], the binding result is on record as “binds”.
